For orientation: Kd means the constant that tells how readily two partners part at equilibrium. A lower Kd goes with tighter binding.

Assay [1] concerns the target ATB’g (Arabidopsis PP2A B subunit) (Arabidopsis thaliana) (UniProt Q8RW96). The assay can be described thus: ITC. In general terms: In ITC the heat of successive injections is recorded.
Assay [2] deals with PSR2 (untagged, purified from E. coli) (P. sojae) (UniProt E0W4V5). The assay can be described thus: ITC.
The target in assay [3] is T1, PSR2 (untagged, purified from E. coli) (P. sojae, UniProt E0W4V5 18-670).
T1 sequence: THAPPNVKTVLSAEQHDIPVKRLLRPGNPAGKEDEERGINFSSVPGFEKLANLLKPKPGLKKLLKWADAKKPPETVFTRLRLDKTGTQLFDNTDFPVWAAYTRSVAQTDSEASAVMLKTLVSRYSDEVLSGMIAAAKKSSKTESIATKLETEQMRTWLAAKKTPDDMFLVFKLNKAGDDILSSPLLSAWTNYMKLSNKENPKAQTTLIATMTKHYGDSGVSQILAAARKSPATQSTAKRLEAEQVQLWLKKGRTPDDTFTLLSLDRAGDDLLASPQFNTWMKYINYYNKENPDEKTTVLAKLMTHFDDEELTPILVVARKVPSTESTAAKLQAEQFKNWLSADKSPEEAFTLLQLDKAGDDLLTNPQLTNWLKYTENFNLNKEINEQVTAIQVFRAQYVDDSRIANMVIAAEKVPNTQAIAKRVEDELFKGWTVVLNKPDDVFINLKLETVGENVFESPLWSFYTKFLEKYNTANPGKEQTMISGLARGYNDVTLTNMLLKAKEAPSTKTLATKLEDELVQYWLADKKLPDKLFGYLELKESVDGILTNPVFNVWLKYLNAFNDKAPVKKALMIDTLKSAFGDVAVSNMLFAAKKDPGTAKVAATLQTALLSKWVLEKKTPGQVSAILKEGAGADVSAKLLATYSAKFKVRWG
Briefly: pull-down.

ATB’g (Arabidopsis PP2A B subunit) (Arabidopsis thaliana), sequence (Q8RW96 whole entry): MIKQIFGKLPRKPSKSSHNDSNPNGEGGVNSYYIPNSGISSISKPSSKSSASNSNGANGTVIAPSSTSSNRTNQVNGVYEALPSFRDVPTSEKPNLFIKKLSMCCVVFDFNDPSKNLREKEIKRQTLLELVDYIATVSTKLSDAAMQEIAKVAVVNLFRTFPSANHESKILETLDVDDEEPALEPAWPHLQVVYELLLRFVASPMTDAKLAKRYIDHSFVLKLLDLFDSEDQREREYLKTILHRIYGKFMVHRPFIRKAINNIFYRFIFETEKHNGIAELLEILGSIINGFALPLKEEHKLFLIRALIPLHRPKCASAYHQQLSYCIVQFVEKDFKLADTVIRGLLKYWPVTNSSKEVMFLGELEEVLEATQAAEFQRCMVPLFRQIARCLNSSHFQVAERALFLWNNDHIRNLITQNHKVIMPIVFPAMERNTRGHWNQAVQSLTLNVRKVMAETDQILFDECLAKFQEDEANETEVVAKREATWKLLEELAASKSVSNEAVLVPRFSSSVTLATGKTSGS

For the molecule “6×His-PDF1 (full-length PDF1, purified from E. coli) (from UniProt Q9S728 24-306) (natural protein)”, the Kd in assay [1] stood at 3330 nM; in assay [2], 350 nM.

B1: RCN1 (purified from E. coli) (natural protein)
chain: MAMVDEPLYPIAVLIDELKNDDIQLRLNSIRRLSTIARALGEERTRKELIPFLSENSDDDDEVLLAMAEELGVFIPFVGGIEFAHVLLPPLESLCTVEETCVREKAVESLCKIGSQMKENDLVESFVPLVKRLAGGEWFAARVSACGIFHVAYQGCTDVLKTELRATYSQLCKDDMPMVRRAAASNLGKFATTVESTFLIAEIMTMFDDLTKDDQDSVRLLAVEGCAALGKLLEPQDCVARILPVIVNFSQDKSWRVRYMVANQLYELCEAVGPDCTRTDLVPAYVRLLRDNEAEVRIAAAGKVTKFCRLLNPELAIQHILPCVKELSSDSSQHVRSALASVIMGMAPILGKDSTIEHLLPIFLSLLKDEFPDVRLNIISKLDQVNQVIGIDLLSQSLLPAIVELAEDRHWRVRLAIIEYVPLLASQLGIGFFDDKLGALCMQWLQDKVYSIREAAANNLKRLAEEFGPEWAMQHLVPQVLDMVNNPHYLHRMMVLRAISLMAPVMGSEITCSKFLPVVVEASKDRVPNIKFNVAKLLQSLIPIVDQSVVDKTIRQCLVDLSEDPDVDVRYFANQALNSIDGSTAAQS
As for B1, the binding result in assay [3] is recorded as “binds”.

These data come from paper doi:10.1101/2023.05.05.539533 (bioRxiv, 2023).
